Patent US20060058231A1 (Xencor, published 2006)
Substitutions are numbered along the chain they refer to. Names may count otherwise.

T1: BMPRII receptor-Fc fusion (UniProt Q13873 27-151, limits assumed)
T1 construct: BMP receptor-Fc fusion, detected with anti-human IgG-HRP
T1 sequence (looked up): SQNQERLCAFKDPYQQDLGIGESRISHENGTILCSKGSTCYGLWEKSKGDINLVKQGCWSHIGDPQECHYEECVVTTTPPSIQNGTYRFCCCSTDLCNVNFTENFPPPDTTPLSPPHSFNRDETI

T2: BMPRIb receptor-Fc fusion (UniProt O00238 14-126)
T2 construct: BMP receptor-Fc fusion, detected with anti-human IgG-HRP; also called ALK-6
T2 sequence (looked up): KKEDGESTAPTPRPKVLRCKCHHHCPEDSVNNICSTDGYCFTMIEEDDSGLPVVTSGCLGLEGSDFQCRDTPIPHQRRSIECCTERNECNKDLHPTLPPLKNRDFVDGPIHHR

T3: BMPRII receptor-Fc fusion (UniProt Q13873 27-151, limits assumed)
T3 construct: BMP receptor-Fc fusion used at 5 ug/mL
T3 sequence (looked up): T1 sequence (looked up)

T4: BMPRIb receptor-Fc fusion (UniProt O00238 14-126)
T4 construct: BMP receptor-Fc fusion used at 5 ug/mL; also called ALK-6
T4 sequence (looked up): T2 sequence (looked up)

B1: BMP-7 variant Q53A (ligand)
chain: STGGKQRSQNRSKTPKNQEALRMASVAENSSSDQRQACKKHELYVSFRDLGWADWIIAPEGYAAYYCEGECAFPLNSYMNATNHAIVQTLVHFINPETVPKPCCAPTQLNAISVLYFDDSSNVILKKYRNMVVRACGCH
B2: BMP-7 variant K39T (ligand)
chain: B1 chain with K39T, A53Q
B3: BMP-7 variant E60S (ligand)
chain: B1 chain with A53Q, E60S
B4: BMP-7 variant K39D (ligand)
chain: B1 chain with K39D, A53Q
B5: BMP-7 variant K126G (ligand)
chain: B1 chain with A53Q, K126G
B6: BMP-7 variant Y44T (ligand)
chain: B1 chain with Y44T, A53Q
notes: In conditioned media; numbering on mature BMP-7
B7: BMP-7 variant Y78T (ligand)
chain: B1 chain with A53Q, Y78T
notes: as for B6
B8: BMP-7 variant Y78R (ligand)
chain: B1 chain with A53Q, Y78R
notes: as for B6
B9: BMP-7 variant Y128K (ligand)
chain: B1 chain with A53Q, Y128K
notes: as for B6
B10: BMP-7 variant Y78H (ligand)
chain: B1 chain with A53Q, Y78H
notes: as for B6
B11: BMP-7 variant Y78D (ligand)
chain: B1 chain with A53Q, Y78D
notes: as for B6
B12: BMP-7 variant Y78P (ligand)
chain: B1 chain with A53Q, Y78P
notes: as for B6
B13: BMP-7 variant Y78S (ligand)
chain: B1 chain with A53Q, Y78S
notes: as for B6

Target: T5, ActRIIa receptor-Fc fusion (UniProt P27037 20-134, limits assumed)
T5 construct: BMP receptor-Fc fusion, detected with anti-human IgG-HRP
Experiment: ELISA-like, fixed volume of conditioned media, receptor-Fc
T5 sequence (P27037 20-134 limits assumed): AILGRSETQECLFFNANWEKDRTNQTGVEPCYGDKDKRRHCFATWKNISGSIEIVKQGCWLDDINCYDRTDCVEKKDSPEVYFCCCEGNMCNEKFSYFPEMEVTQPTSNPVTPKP

Row | ActRIIa binding relative to wild type | Binder
1 | 0.84 relative to wt = 1.0 | B1
2 | 0.98 relative to wt = 1.0 | B2
3 | 1.02 relative to wt = 1.0 | B3
4 | 0.88 relative to wt = 1.0 | B4
5 | 0.53 relative to wt = 1.0 | B5

Target: T1, BMPRII receptor-Fc fusion
Experiment: as above

Row | BMPRII binding relative to wild type | Binder
6 | 0.26 relative to wt = 1.0 | B1
7 | 0.75 relative to wt = 1.0 | B2
8 | 0.88 relative to wt = 1.0 | B3
9 | 0.72 relative to wt = 1.0 | B4
10 | 0.12 relative to wt = 1.0 | B5

Target: T6, BMPRIa receptor-Fc fusion (UniProt P36894 24-152, limits assumed)
T6 construct: BMP receptor-Fc fusion; also called ALK-3
Experiment: as above
T6 sequence (P36894 24-152 limits assumed): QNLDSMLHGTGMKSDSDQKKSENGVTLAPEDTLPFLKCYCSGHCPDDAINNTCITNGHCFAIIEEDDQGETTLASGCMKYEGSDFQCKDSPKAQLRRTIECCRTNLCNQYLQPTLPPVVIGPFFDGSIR

Row | BMPRIa binding relative to wild type | Binder
11 | 0.54 relative to wt = 1.0 | B1
12 | 0.74 relative to wt = 1.0 | B2
13 | 0.74 relative to wt = 1.0 | B3
14 | 0.67 relative to wt = 1.0 | B4
15 | 0.3 relative to wt = 1.0 | B5

Target: T2, BMPRIb receptor-Fc fusion
Experiment: as above

Row | BMPRIb binding relative to wild type | Binder
16 | 0.65 relative to wt = 1.0 | B1
17 | 0.86 relative to wt = 1.0 | B2
18 | 0.87 relative to wt = 1.0 | B3
19 | 0.82 relative to wt = 1.0 | B4
20 | 0.35 relative to wt = 1.0 | B5

Target: T7, ActRIIa receptor-Fc fusion (UniProt P27037 20-134, limits assumed)
T7 construct: BMP receptor-Fc fusion used at 5 ug/mL
Experiment: ELISA-like plate assay, captured BMP-7 from conditioned media, receptor-Fc detection
T7 sequence (P27037 20-134 limits assumed): as the sequence (P27037 20-134 limits assumed) above

Row | ActRIIa binding (relative to wild type = 1.0) | Binder
21 | 0.36 relative to wild type | B6
22 | 1.63 relative to wild type | B7
23 | 2.26 relative to wild type | B8
24 | 1.11 relative to wild type | B9
25 | 1.07 relative to wild type | B10
26 | 1.93 relative to wild type | B11
27 | 0.92 relative to wild type | B12
28 | 1.58 relative to wild type | B13

Target: T3, BMPRII receptor-Fc fusion
Experiment: as above

Row | BMPRII binding (relative to wild type = 1.0) | Binder
29 | 0.25 relative to wild type | B6
30 | 2.66 relative to wild type | B7
31 | 3.13 relative to wild type | B8
32 | 1.78 relative to wild type | B9
33 | 1.47 relative to wild type | B10
34 | 2.72 relative to wild type | B11
35 | 0.85 relative to wild type | B12
36 | 1.77 relative to wild type | B13

Target: T8, BMPRIa receptor-Fc fusion (UniProt P36894 24-152, limits assumed)
T8 construct: also called ALK-3
Experiment: as above
T8 sequence (P36894 24-152 limits assumed): as the sequence (P36894 24-152 limits assumed) above

Row | BMPRIa binding (relative to wild type = 1.0) | Binder
37 | 1.09 relative to wild type | B6
38 | 0.87 relative to wild type | B7
39 | 1.36 relative to wild type | B8
40 | 1.4 relative to wild type | B9
41 | 1.36 relative to wild type | B10
42 | 1.05 relative to wild type | B11
43 | 0.75 relative to wild type | B12
44 | 1.29 relative to wild type | B13

Target: T4, BMPRIb receptor-Fc fusion
Experiment: as above

Row | BMPRIb binding (relative to wild type = 1.0) | Binder
45 | 1.33 relative to wild type | B6
46 | 2.4 relative to wild type | B7
47 | 2.39 relative to wild type | B8
48 | 1.57 relative to wild type | B9
49 | 1.34 relative to wild type | B10
50 | 2.01 relative to wild type | B11
51 | 0.69 relative to wild type | B12
52 | 2.75 relative to wild type | B13
